What was measured:
[1] = biological target: Jak2 (UniProt O60674); assay: phosphorylation enrichment, bacterial display (enrichment ratio); higher = better substrate or ligand; peptides without Tyr show the background
[2] = biological target: EPHB1 (UniProt P54762); assay: as above
[3] = test system: AncSZ; assay: as above
[4] = biological target: Hck (UniProt P08631); assay: as above
[5] = test system: Fer (mouse); assay: as above
[6] = biological target: FGFR1 (UniProt P11362); assay: as above
FGFR1, sequence (P11362 whole entry, looked up): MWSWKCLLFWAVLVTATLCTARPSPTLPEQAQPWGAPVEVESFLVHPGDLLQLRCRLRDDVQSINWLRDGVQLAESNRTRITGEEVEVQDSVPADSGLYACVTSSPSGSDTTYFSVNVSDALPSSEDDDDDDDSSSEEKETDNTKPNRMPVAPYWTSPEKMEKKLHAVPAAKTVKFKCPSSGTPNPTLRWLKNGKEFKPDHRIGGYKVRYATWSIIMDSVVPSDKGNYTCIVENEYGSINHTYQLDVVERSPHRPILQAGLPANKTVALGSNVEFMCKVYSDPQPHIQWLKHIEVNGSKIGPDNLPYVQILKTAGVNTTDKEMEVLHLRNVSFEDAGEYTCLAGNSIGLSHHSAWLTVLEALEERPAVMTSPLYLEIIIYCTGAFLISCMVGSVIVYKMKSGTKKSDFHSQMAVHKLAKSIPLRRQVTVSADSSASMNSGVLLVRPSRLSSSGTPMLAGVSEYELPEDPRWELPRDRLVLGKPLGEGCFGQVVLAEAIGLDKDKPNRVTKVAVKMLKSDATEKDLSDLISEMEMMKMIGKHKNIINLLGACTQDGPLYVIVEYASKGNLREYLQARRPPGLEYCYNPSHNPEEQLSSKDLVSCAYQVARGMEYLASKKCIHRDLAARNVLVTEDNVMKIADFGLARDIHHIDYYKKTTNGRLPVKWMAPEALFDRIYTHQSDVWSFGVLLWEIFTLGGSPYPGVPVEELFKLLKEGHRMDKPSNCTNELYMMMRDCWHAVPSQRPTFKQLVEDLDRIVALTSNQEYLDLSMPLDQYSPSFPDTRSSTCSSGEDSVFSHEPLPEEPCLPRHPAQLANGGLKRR

[7] = test system: c-Abl (mouse); assay: as above
[8] = biological target: EPHB2 (UniProt P29323); assay: as above
[9] = test system: c-Src; assay: as above
[10] = biological target: MERTK (UniProt Q12866); assay: as above
[11] = biological target: Fyn (UniProt P06241); assay: as above
Fyn, sequence (P06241 whole entry, looked up): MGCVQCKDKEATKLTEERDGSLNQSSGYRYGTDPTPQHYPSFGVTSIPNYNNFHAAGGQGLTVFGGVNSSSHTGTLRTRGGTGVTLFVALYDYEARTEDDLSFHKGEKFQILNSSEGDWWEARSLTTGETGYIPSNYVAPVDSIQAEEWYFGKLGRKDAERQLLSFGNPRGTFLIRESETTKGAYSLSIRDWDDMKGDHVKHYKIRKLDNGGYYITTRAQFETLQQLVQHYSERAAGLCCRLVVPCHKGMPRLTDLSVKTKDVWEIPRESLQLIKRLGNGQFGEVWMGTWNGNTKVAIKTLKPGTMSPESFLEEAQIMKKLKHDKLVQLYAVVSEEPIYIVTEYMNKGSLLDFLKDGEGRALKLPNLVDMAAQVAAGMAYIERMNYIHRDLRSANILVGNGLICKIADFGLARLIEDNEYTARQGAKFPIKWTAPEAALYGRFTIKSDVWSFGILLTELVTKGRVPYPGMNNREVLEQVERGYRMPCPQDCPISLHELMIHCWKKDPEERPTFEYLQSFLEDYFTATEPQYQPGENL

[12] = biological target: FGFR3 (UniProt P22607); assay: as above
FGFR3, sequence (P22607 whole entry, looked up): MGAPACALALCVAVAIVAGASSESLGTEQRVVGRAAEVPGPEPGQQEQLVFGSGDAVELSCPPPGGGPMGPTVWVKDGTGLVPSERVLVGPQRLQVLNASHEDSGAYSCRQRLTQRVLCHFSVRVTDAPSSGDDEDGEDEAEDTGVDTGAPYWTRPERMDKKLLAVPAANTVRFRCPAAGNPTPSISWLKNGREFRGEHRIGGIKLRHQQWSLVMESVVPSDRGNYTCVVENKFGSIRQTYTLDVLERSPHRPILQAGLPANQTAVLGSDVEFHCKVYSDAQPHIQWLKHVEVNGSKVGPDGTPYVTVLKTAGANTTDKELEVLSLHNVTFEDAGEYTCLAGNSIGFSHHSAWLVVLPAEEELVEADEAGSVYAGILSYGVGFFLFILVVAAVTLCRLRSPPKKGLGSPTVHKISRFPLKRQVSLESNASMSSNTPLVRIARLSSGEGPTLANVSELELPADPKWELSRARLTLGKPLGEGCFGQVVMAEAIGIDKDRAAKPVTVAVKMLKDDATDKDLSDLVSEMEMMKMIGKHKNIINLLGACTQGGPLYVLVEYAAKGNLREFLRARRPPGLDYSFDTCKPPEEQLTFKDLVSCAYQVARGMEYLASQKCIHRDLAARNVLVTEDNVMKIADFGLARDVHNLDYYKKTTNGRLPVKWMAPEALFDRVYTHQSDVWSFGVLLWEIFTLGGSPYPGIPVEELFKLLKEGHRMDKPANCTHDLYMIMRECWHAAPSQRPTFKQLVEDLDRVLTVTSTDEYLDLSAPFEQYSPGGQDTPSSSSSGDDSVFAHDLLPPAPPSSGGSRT

[13] = biological target: Fes (UniProt P07332); assay: as above
Fes, sequence (P07332 whole entry, looked up): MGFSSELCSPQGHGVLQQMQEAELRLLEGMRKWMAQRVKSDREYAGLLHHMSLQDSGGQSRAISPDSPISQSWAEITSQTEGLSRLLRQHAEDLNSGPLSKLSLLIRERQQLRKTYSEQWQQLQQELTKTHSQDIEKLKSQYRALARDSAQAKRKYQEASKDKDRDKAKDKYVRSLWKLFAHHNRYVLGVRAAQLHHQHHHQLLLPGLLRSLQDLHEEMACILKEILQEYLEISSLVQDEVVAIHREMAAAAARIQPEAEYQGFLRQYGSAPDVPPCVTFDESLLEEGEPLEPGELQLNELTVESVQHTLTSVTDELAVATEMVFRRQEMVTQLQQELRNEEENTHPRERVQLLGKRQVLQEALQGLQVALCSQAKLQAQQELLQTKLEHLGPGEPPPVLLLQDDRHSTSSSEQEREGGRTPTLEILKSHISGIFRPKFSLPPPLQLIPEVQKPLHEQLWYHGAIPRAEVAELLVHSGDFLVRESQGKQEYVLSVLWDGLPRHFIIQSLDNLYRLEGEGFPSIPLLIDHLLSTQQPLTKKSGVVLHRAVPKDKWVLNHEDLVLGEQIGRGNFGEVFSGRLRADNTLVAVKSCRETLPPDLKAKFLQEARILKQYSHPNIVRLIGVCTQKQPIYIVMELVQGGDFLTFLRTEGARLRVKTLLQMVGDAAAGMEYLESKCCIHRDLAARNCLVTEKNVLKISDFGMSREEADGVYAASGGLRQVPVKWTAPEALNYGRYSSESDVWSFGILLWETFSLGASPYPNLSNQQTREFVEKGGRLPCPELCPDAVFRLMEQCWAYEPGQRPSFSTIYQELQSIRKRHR

[14] = biological target: Grb2 SH2 (UniProt P62993); assay: SH2 binding enrichment of the phosphorylated peptide, bacterial display (enrichment ratio); higher = better substrate or ligand; peptides without Tyr show the background
[15] = biological target: c-Src SH2; assay: as above
[16] = biological target: SHP2-C SH2; assay: as above
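For SH2 binding enrichment of the phosphorylated peptide, bacterial display in this document: peptide library displayed on the E. coli surface as eCPX fusions, selected cells deep-sequenced, score is each peptide's frequency after selection divided by its frequency in the input.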
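For phosphorylation enrichment, bacterial display in this document: 11-residue human phosphosite peptides and single-mutation variants displayed on the E. coli surface, counted by deep sequencing, each peptide's frequency after selection divided by its frequency in the unselected input library; frequency after pTyr selection over input frequency; kinase dosed for 20-30% of maximal phosphorylation in three min.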

Jak2, sequence (O60674 whole entry, looked up): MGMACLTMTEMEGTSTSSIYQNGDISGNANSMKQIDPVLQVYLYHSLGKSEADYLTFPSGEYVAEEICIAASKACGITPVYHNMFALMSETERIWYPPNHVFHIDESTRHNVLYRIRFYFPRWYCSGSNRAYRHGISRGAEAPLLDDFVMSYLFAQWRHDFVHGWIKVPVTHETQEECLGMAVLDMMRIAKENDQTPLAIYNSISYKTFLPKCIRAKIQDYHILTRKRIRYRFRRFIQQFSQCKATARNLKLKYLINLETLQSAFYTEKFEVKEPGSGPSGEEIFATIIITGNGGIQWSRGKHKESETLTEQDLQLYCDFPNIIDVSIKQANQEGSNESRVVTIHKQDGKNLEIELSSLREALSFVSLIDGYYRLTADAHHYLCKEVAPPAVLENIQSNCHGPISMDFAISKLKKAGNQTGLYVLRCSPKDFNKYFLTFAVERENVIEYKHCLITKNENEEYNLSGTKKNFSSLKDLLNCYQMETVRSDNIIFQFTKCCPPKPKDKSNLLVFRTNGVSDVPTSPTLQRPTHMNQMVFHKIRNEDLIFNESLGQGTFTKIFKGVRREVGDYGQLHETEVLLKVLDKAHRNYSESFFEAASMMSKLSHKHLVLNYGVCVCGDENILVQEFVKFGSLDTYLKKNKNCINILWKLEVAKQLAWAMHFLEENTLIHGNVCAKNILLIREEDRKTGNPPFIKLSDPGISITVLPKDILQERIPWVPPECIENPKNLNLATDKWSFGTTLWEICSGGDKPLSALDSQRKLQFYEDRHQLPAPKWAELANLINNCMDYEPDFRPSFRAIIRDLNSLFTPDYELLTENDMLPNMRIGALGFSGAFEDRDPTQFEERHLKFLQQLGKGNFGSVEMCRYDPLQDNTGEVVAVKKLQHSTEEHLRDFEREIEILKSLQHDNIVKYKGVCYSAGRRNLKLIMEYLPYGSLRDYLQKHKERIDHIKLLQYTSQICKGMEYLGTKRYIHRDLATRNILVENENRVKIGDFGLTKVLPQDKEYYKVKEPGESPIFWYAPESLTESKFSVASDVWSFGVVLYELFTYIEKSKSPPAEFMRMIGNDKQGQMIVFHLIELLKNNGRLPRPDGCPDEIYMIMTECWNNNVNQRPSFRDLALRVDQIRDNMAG
EPHB1, sequence (P54762 whole entry, looked up): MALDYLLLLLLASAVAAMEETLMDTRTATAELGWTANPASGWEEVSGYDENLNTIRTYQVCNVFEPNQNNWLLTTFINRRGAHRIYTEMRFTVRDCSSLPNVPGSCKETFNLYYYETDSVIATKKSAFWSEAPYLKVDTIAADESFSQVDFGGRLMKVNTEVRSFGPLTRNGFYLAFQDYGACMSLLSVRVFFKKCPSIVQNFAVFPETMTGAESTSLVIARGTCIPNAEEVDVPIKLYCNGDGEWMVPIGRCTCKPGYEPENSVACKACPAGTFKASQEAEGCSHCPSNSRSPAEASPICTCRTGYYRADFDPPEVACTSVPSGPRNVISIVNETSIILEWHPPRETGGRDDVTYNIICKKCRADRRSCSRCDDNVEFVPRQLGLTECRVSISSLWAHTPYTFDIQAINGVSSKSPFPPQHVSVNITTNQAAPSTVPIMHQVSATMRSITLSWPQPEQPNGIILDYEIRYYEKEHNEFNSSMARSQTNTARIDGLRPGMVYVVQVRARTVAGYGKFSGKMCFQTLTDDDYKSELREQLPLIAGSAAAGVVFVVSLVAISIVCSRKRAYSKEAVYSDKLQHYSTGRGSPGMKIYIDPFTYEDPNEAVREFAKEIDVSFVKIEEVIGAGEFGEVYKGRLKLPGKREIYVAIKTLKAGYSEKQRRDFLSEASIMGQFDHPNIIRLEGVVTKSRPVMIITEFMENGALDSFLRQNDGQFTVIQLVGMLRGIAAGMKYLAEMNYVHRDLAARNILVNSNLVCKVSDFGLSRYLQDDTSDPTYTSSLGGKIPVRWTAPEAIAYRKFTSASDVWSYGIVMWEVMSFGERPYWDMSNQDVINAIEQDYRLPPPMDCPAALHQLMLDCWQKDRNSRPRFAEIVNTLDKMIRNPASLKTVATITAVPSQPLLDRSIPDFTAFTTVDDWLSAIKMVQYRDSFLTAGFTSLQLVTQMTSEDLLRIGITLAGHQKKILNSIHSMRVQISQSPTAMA

| Sequence | SH2 binding enrichment [14] | SH2 binding enrichment [15] | SH2 binding enrichment [16] | phosphorylation enrichment [1] | phosphorylation enrichment [2] | phosphorylation enrichment [3] | phosphorylation enrichment [4] | phosphorylation enrichment [5] | phosphorylation enrichment [6] | phosphorylation enrichment [7] | phosphorylation enrichment [8] | phosphorylation enrichment [9] | phosphorylation enrichment [10] | phosphorylation enrichment [11] | phosphorylation enrichment [12] | phosphorylation enrichment [13] |
| --- | --- | --- | --- | --- | --- | --- | --- | --- | --- | --- | --- | --- | --- | --- | --- | --- |
| CTLLPYYSARV [DGKE_Y269] | 0.74 | 1.81 | 0.889 | 0.937 | 0.601 | 1.03 | 0.604 | 0.497 | 0.485 | 0.735 | 0.655 | 0.579 | 0.508 | 0.464 | 0.699 | 1.04 |
| KQNSLYSFSDH [CCDC82_Y331] | 0.765 | 0.466 | 0.609 | 0.853 | 0.853 | 1 | 3.25 | 3.95 | 0.489 | 0.691 | 0.651 | 3.97 | 9.08 | 5.24 | 0.536 | 0.907 |
| GVLKEYGEKVL [CPS1_Y529_V531E] | 0.921 | 0.427 | 0.767 | 0.573 | 0.42 | 0.742 | 0.422 | 0.405 | 0.419 | 0.648 | 0.474 | 0.396 | 0.415 | 0.425 | 0.466 | 0.719 |
| CWAVKYLQMVG [AVPR2_Y117_R113W] | 1.26 | 0.92 | 1.2 | 1.26 | 0.622 | 1.37 | 0.466 | 0.504 | 0.495 | 0.817 | 0.832 | 0.434 | 0.386 | 0.413 | 0.703 | 1.39 |
| RELGEYALAEF [ALDH1A3_Y492_YF] | 0.684 | 0.93 | 0.411 | 0.821 | 0.857 | 1.28 | 0.661 | 0.699 | 0.725 | 0.849 | 0.697 | 0.665 | 0.478 | 0.77 | 0.784 | 1.06 |
| LAGRYYALKSM [CKB_Y174] | 1.21 | 1.67 | 2.14 | 1.29 | 0.541 | 1.24 | 0.783 | 0.545 | 1.45 | 0.594 | 0.417 | 0.67 | 3.22 | 0.668 | 0.957 | 0.852 |
| FTDGQYWIRGR [ACSF3_Y466_K462T] | 0.648 | 0.358 | 0.489 | 0.818 | 0.509 | 1.02 | 1.03 | 0.408 | 0.425 | 0.611 | 0.463 | 0.588 | 0.521 | 0.422 | 0.555 | 0.992 |

The next lines start with results.

| SH2 binding enrichment [14] | SH2 binding enrichment [15] | SH2 binding enrichment [16] | Sequence | phosphorylation enrichment [1] | phosphorylation enrichment [2] | phosphorylation enrichment [3] | phosphorylation enrichment [4] | phosphorylation enrichment [5] | phosphorylation enrichment [6] | phosphorylation enrichment [7] | phosphorylation enrichment [8] | phosphorylation enrichment [9] | phosphorylation enrichment [10] | phosphorylation enrichment [11] | phosphorylation enrichment [12] | phosphorylation enrichment [13] |
| --- | --- | --- | --- | --- | --- | --- | --- | --- | --- | --- | --- | --- | --- | --- | --- | --- |
| 0.998 | 0.585 | 0.749 | KNEKVYTRHGV [FLOT1_Y56_S52N] | 0.392 | 0.243 | 0.514 | 0.344 | 0.316 | 0.352 | 0.435 | 0.33 | 0.357 | 0.375 | 0.355 | 0.356 | 0.487 |
| 0.869 | 0.481 | 0.759 | PPNSPYMGSSP [KCNT1_Y740_I741M] | 0.825 | 0.497 | 1.01 | 0.521 | 0.612 | 0.632 | 0.782 | 0.536 | 0.59 | 0.468 | 0.546 | 0.818 | 0.868 |
| 0.894 | 0.515 | 0.7 | LVSCTYQLARG [FGFR2_Y608] | 0.983 | 0.536 | 1.23 | 0.483 | 0.605 | 0.452 | 0.91 | 0.62 | 0.783 | 0.443 | 0.579 | 0.698 | 1.08 |
| 0.97 | 0.6 | 0.744 | EEGEEYGGGGG [TUBA1A_Y451] | 0.946 | 0.638 | 1.19 | 0.602 | 0.552 | 0.604 | 0.815 | 0.769 | 0.531 | 0.485 | 0.557 | 0.701 | 1.32 |
| 1.56 | 1.55 | 1.25 | RAILLYEYVGK [NATD1_Y45_V42I] | 2.34 | 33.9 | 3.29 | 15.5 | 26.3 | 4.68 | 2.4 | 46.9 | 11.1 | 19.1 | 11.2 | 5.74 | 7.22 |
| 0.912 | 0.565 | 0.549 | PEVSGYCHCAD [TG_Y234] | 2.21 | 3.57 | 2.1 | 1.08 | 1.14 | 1.11 | 1.83 | 1.4 | 1.2 | 0.936 | 0.976 | 1.56 | 2.79 |
| 0.717 | 0.447 | 0.596 | ADGLEYSRTEL [MMUT_Y287_G291E] | 0.747 | 0.483 | 1.03 | 0.547 | 0.56 | 0.552 | 0.621 | 0.572 | 0.461 | 0.437 | 0.527 | 0.637 | 0.873 |
| 0.531 | 0.432 | 0.942 | DDHFTYSRYPW [LY75_Y888] | 1.13 | 4.66 | 1.49 | 6.62 | 0.642 | 0.576 | 1.86 | 7.92 | 5.2 | 1.23 | 4.82 | 0.969 | 1.13 |
| 0.632 | 0.437 | 0.571 | RAMRRYLEWGE [ERBB3_Y680_R683W] | 0.677 | 0.403 | 0.514 | 0.657 | 0.834 | 0.427 | 0.4 | 0.398 | 0.834 | 0.466 | 0.553 | 0.314 | 0.561 |

— the supplement of paper PMC10065799, “High-throughput profiling of sequence recognition by tyrosine kinases and SH2 domains using bacterial peptide display” (eLife, 2023)
